Data as given in patent publication US20110150870A1 (UNITED STATES OF AMERICA AS REPRESENTED BY TH, published 2011).
Where two headings read alike, the source gives them in different places.

T1: human Fc-NKG2D (human, UniProt P26718 78-216)
T1 construct: range 78-216; Bought from R&D Systems: a recombinant fusion protein of human Fc and the extracellular domain (amino acids 78-216) of human NKG2D; also called human NKG2D (immobilized); not shown: human Fc
T1 sequence (looked up): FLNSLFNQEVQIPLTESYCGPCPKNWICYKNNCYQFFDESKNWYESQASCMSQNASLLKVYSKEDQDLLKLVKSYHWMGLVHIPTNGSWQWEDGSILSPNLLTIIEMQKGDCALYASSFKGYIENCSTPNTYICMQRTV

T2: human CD22-Fc (human, UniProt P20273 20-687)
T2 construct: Bought from R&D Systems; not shown: Fc part
T2 sequence (looked up): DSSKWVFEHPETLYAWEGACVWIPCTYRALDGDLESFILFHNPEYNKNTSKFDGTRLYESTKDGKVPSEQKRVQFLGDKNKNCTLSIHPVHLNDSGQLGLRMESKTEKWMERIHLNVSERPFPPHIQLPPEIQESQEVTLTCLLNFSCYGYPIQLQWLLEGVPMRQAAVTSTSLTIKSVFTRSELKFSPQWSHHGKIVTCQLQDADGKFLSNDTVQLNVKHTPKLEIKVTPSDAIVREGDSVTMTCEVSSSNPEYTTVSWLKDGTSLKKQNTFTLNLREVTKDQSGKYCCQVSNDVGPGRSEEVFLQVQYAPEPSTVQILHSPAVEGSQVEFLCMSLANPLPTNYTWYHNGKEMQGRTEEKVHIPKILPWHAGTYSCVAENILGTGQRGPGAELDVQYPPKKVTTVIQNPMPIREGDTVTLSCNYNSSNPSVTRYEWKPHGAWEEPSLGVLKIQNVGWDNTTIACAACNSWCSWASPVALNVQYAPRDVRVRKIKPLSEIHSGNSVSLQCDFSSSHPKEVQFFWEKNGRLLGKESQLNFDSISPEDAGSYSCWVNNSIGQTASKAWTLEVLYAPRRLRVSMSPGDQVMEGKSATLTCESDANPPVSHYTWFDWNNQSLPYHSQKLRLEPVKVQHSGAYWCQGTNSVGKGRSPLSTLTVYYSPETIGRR

T3: mouse Fc-NKG2D (mouse, UniProt O54709 94-232, limits assumed)
T3 construct: Bought from R&D Systems; also called mouse NKG2D; not shown: Fc part
T3 sequence (looked up): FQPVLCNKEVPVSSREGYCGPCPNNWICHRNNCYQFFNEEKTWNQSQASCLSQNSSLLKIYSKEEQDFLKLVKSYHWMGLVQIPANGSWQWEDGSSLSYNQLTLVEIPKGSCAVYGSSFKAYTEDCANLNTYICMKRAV

T4: human CD23 (human, UniProt P06734 150-321, limits assumed)
T4 construct: Bought
T4 sequence (looked up): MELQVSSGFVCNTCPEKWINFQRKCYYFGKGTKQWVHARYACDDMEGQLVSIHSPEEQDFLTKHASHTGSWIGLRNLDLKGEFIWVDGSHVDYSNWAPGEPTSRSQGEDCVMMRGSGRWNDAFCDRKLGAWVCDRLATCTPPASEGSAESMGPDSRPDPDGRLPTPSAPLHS

T5: human MICB-Fc (human, UniProt Q29980 23-298, limits assumed)
T5 construct: Bought from R&D Systems; also called recombinant human MICB-Fc; not shown: Fc part (detected with anti-human Fc)
T5 sequence (looked up): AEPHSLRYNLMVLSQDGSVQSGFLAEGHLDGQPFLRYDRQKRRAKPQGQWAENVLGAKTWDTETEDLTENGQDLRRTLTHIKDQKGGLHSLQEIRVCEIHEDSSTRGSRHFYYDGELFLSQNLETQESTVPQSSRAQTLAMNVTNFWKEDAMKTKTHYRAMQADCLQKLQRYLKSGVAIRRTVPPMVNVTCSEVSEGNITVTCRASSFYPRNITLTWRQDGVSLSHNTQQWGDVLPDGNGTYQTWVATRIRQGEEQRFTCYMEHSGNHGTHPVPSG

T6: human MICA-Fc (human, UniProt Q29983 24-307, limits assumed)
T6 construct: Bought from R&D Systems; also called recombinant human MICA-Fc; not shown: Fc part (detected with anti-human Fc)
T6 sequence (looked up): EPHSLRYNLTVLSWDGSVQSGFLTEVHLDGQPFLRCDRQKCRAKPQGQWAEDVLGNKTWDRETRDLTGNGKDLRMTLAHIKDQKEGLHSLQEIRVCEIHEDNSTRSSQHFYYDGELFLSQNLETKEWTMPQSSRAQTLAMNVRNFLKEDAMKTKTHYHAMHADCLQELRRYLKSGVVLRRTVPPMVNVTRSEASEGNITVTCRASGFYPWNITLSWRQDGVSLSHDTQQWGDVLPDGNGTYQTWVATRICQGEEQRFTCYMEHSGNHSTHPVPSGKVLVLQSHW

B1: KYK-1.0 Fab (Fab, V domains shown)
VH: EVQLVESGGGVVQPGGSLRLSCAASGFTFSSYGMHWVRQAPGKGLEWVAFIRYDGSNKYYADSVKGRFTISRDNSKNTKYLQMNSLRAEDTAVYYCAKDRFGYYLDYWGQGTLVTVSS
VL: QPVLTQPSSVSVAPGETARIPCGGDDIETKSVHWYQQKPGQAPVLVIYDDDDRPSGIPERFFGSNSGNTATLSISRVEAGDEADYYCQVWDDNNDEWVFGGGTQLTVL
notes: Human Fab with human constant domains (lambda light chain) and a C-terminal (His)6 tag, expressed in E. coli from pC3C-His and purified by IMAC
B2: KYK-1.0 IgG1 (antibody, V domains shown)
VH: B1 VH
VL: B1 VL
notes: Fully human IgG1 lambda; also called KYK-1.0 IgG1λ; PIGG-KYK-1.0
B3: human NKG2D, cell surface (receptor, UniProt P26718 1-216, looked up)
chain: MGWIRGRRSRHSWEMSEFHNYNLDLKKSDFSTRWQKQRCPVVKSKCRENASPFFFCCFIAVAMGIRFIIMVTIWSAVFLNSLFNQEVQIPLTESYCGPCPKNWICYKNNCYQFFDESKNWYESQASCMSQNASLLKVYSKEDQDLLKLVKSYHWMGLVHIPTNGSWQWEDGSILSPNLLTIIEMQKGDCALYASSFKGYIENCSTPNTYICMQRTV
notes: whole, on cells; also called cell surface human NKG2D
B4: KYK-2.0 Fab (Fab, V domains shown)
VH: QVQLVESGGGLVKPGGSLRLSCAASGFTFSSYGMHWVRQAPGKGLEWVAFIRYDGSNKYYADSVKGRFTISRDNSKNTKYLQMNSLRAEDTAVYYCAKDRGLGDGTYFDYWGQGTTVTVSS
VL: QSALTQPASVSGSPGQSITISCSGSSSNIGNNAVNWYQQLPGKAPKLLIYYDDLLPSGVSDRFSGSKSGTSAFLAISGLQSEDEADYYCAAWDDSLNGPVFGGGTKLTVL
notes: Human Fab (lambda) with human constant domains and a C-terminal (His)6 tag, expressed in E. coli from pC3C-His and purified by IMAC
B5: KYK-2.0 IgG1 (antibody, V domains shown)
VH: B4 VH
VL: B4 VL
notes: It was biotinylated for flow cytometry on PBMC; also called KYK-2.0 IgG1λ; PIGG-KYK-2.0
B6: human ULBP2-Fc (Fc fusion, UniProt Q9BZM5 26-217, looked up)
chain: GRADPHSLCYDITVIPKFRPGPRWCAVQGQVDEKTFLHYDCGNKTVTPVSPLGKKLNVTTAWKAQNPVLREVVDILTEQLRDIQLENYTPKEPLTLQARMSCEQKAEGHSSGSWQFSFDGQIFLLFDSEKRMWTTVHPGARKMKEKWENDKVVAMSFHYFSMGDCIGWLEDFLMGMDSTLEPSAGAPLAMSS
notes: Bought from R&D Systems; also called recombinant human ULBP2-Fc; not shown: Fc part (detected with anti-human Fc)

How the values were obtained:
[1] = biological target: T1, human Fc-NKG2D; test: SPR (BIAcore 2000), human Fc-NKG2D immobilized on chip
[2] = biological target: B6; test: ELISA, protein coated at 100 ng/well, Fab detected with goat anti-human Fab-HRP, absorbance at 405 nm
[3] = biological target: T7, BSA (bovine, UniProt P02769); test: as above
T7 construct: coated on the ELISA plate; also called bovine serum albumin

[4] = biological target: T2, human CD22-Fc; test: as above
[5] = biological target: T3, mouse Fc-NKG2D; test: as above
[6] = biological target: T4, human CD23; test: as above
[7] = biological target: T1, human Fc-NKG2D; test: SPR (BIAcore 2000), human Fc-NKG2D immobilized on chip; koff/kon
[8] = biological target: T1, human Fc-NKG2D; test: SPR (BIAcore 2000), human Fc-NKG2D immobilized on chip; bivalent binding (virtual affinity, avidity)
[9] = biological target: T1, human Fc-NKG2D; test: SPR (BIAcore 2000), human Fc-NKG2D immobilized on chip; bivalent IgG
[10] = biological target: T5, human MICB-Fc; test: whole-cell ELISA on HEK 293F/human NKG2D, 100 ng ligand-Fc, detected with biotinylated goat anti-human Fc and streptavidin-HRP, absorbance at 405 nm [panel MICB]
[11] = biological target: T6, human MICA-Fc; test: whole-cell ELISA on HEK 293F/human NKG2D, 100 ng ligand-Fc, detected with biotinylated goat anti-human Fc and streptavidin-HRP, absorbance at 405 nm [panel MICA]
[12] = biological target: T1, human Fc-NKG2D
[13] = biological target: T1, human Fc-NKG2D; remark: listed apart in the source
[14] = biological target: T1, human Fc-NKG2D; test: SPR (BIAcore 2000), human Fc-NKG2D immobilized on chip; remark: listed apart in the source
[15] = biological target: B3; test: whole-cell ELISA on HEK 293F/human NKG2D, 100 ng ligand-Fc, detected with biotinylated goat anti-human Fc and streptavidin-HRP, absorbance at 405 nm [panel ULBP2]

T7 sequence (P02769 25-607 limits assumed): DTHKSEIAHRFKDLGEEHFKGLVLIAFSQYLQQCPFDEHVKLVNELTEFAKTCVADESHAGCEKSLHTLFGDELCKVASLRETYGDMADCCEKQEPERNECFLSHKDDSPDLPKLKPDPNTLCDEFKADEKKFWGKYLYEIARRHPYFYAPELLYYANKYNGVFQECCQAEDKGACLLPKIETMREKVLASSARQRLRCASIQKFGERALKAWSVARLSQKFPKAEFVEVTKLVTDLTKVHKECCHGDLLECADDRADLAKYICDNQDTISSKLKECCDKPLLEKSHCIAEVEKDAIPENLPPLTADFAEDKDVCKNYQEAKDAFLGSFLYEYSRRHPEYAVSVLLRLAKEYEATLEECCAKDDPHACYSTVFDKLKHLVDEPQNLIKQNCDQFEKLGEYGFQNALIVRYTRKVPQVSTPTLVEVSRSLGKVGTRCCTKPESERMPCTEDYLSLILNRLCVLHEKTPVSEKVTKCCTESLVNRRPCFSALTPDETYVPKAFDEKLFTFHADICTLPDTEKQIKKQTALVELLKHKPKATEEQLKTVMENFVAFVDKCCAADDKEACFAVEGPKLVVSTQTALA

Binder | koff [1] [s⁻¹] | kon [1] [M⁻¹ s⁻¹] | binding result [2] | binding result [3] | binding result [4] | binding result [5] | binding result [6] | Kd [7] [nM] | Kd [8] [nM] | koff [9] [s⁻¹] | kon [9] [M⁻¹ s⁻¹] | further results
B1 | 0.037 | 1.4e+06 | no binding (tested: not shown) | no binding (tested: not shown) | no binding (tested: not shown) | no binding (tested: not shown) | no binding (tested: not shown) | 27 | – | – | – | –
B2 | – | – | – | – | – | – | – | – | 1.8 | 0.00056 | 310000 | –
B3 | – | – | – | – | – | – | – | – | – | – | – | binding result [10]: binds; binding result [11]: binds
B4 | 0.0043 | 740000 | no binding (tested: not shown) | no binding (tested: not shown) | no binding (tested: not shown) | no binding (tested: not shown) | no binding (tested: not shown) | 5.8 | – | – | – | Kd [12]: 1.9 to 3 nM; koff [12]: 0.0012 s⁻¹; kon [12]: 450000 M⁻¹ s⁻¹; Kd [13]: 1.9 to 3 nM; koff [13]: 0.0018 s⁻¹; kon [13]: 890000 M⁻¹ s⁻¹; fold improvement in affinity (Kd) over KYK-1.0 Fab [14]: ~4.5 fold; fold slower dissociation compared to KYK-1.0 Fab [14]: ~8.5 fold
B5 | – | – | – | – | – | – | – | – | 0.38 | 0.00012 | 320000 | –
B6 | – | – | – | – | – | – | – | – | – | – | – | binding result [15]: binds
